In patent US20070160576A1, “IL-17A/F heterologous polypeptides and therapeutic uses thereof” (Genentech, Inc., priority 2001, published 2007):

Assays:
IL-17R [1] = target: T1, IL-17R (Homo sapiens, UniProt Q96F46); assay: SPR competition for receptor binding to immobilized IL-17; conditions: IL-17R 500 nM; IL-17F at 2 ┘M
T1 construct: the extracellular domains (ECDs) of either of the two receptors IL-17R (designated PRO1) and IL-17RH1 (PRO5801)
Experimental: (§1) The kinetics and affinity of IL-17, IL-17E (PRO10272), or IL-17F (PRO20110) binding to IL-17R or IL-17RH1 (PRO5801) were determined by SPR measurements on a Pharmacia BIAcore 1000 instrument (Phamacia Biosensor, Piscataway N.J.). IL-17 ligand or receptor was immobilized onto a flow cell of a CM5 sensor chip via random coupling to amino groups, N-hydroxysuccinimide chemistry, by using a protocol developed by the manufacturer. An immobilization level of about 500 resonance units (RU) was obtained for IL-17R, IL-17RH1, and IL-17F, whereas IL-17 and IL-17E immobilization levels were 1200 and 1500 RU, respectively. A strong signal was obtained for IL-17R binding to immobilized IL-17. […] After blocking unreacted sites with ethanolamine, binding measurements were performed using a flow rate of 25 ┘L/min. Sensorgrams-were obtained for a series of six, two-fold serially diluted protein solutions. The highest concentration used was 1000 or 500 nM protein and the solutions were prepared in the running buffer, PBS containing 0.05% Tween-20. […] Sensorgrams were evaluated according to a 1:1 binding model by non-linear regression analysis using software supplied by the manufacturer. […] The amount of bound receptor was determined from the resonance signal obtained after completion of the association phase. […]

IL-17RH1 = target: T2, IL-17RH1 (Homo sapiens, UniProt Q9NRM6); assay: SPR competition for receptor binding to immobilized IL-17E; conditions: IL-17RH1 31 nM; IL-17F at 1.3 ┘M
T2 construct: the extracellular domains (ECDs) of either of the two receptors IL-17R (designated PRO1) and IL-17RH1 (PRO5801)
T2 sequence (Q9NRM6 18-292 limits assumed): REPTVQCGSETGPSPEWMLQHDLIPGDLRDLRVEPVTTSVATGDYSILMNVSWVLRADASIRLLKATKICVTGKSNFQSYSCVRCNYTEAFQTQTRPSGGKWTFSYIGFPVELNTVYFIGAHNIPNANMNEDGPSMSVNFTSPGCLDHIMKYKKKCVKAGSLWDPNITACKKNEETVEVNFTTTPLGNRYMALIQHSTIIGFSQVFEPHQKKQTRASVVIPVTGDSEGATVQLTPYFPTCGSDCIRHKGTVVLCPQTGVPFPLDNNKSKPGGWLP
Experimental: as §1

[2] = target: T3, Cos cells transfected with IL-17R (Homo sapiens, UniProt Q96F46); assay: Binding to Cos cells transfected with IL-17R; type: cell-based; conditions: data not shown
T3 construct: expressed in transfected cells; host or cells: Cos cells

TK-10 cells = assay: IL-8 and IL-6 production in TK-10 cells (ELISA of conditioned media); type: cell-based, human; conditions: TK-10 cells, 24 hours, IL-8 ELISA
Experimental: Fractions were tested by incubation with TK-10 cells for 24 hours (0.033 microliters fraction/ml of cell culture media). Conditioned media was then collected and IL-8 and IL-6 concentration measurements were performed on each fraction by ELISA. […] Gels, blots, amino acid sequence and activity assays were run on this fraction (FIG. 3). Alternatively, fraction 31 and the remaining volume of fraction 32, from the HiLoad S Sepharose run were pooled and dialyzed against Buffer A for eight hours using a 10 kD cutoff membrane and passed through a 0.2 micron filter. […] Fractions 26-43 were assayed and protein concentrations were determined by amino acid analysis. Pure IL-17A/F was identified in fractions 31-33 as a single protein with apparent molecular mass of 30-35 kD. The concentrations of fractions 31, 32 and 33 were 0.258, 0.359 and 0.291 mg/ml respectively.
IL-17A/F, IL-17 and IL-17F were incubated with TK-10 cells at the indicated concentrations for 24 hours.
TK-10 conditioned media was collected and analyzed by IL-8 ELISA and IL-6 ELISA.

IL-17RH1 (PRO5801) = target: T4, IL-17RH1 (PRO5801) (Homo sapiens, UniProt Q9NRM6); assay: SPR (BIAcore) binding measurements; conditions: IL-17RH1 up to 0.5 ┘M
T4 construct: the extracellular domains (ECDs) of either of the two receptors IL-17R (designated PRO1) and IL-17RH1 (PRO5801)
T4 sequence (Q9NRM6 18-292 limits assumed): T2 sequence (Q9NRM6 18-292 limits assumed)
Experimental: (§2) The kinetics and affinity of IL-17, IL-17E (PRO10272), or IL-17F (PRO20110) binding to IL-17R or IL-17RH1 (PRO5801) were determined by SPR measurements on a Pharmacia BIAcore 1000 instrument (Phamacia Biosensor, Piscataway N.J.). IL-17 ligand or receptor was immobilized onto a flow cell of a CM5 sensor chip via random coupling to amino groups, N-hydroxysuccinimide chemistry, by using a protocol developed by the manufacturer. An immobilization level of about 500 resonance units (RU) was obtained for IL-17R, IL-17RH1, and IL-17F, whereas IL-17 and IL-17E immobilization levels were 1200 and 1500 RU, respectively. A strong signal was obtained for IL-17R binding to immobilized IL-17. […] After blocking unreacted sites with ethanolamine, binding measurements were performed using a flow rate of 25 ┘L/min. Sensorgrams-were obtained for a series of six, two-fold serially diluted protein solutions. The highest concentration used was 1000 or 500 nM protein and the solutions were prepared in the running buffer, PBS containing 0.05% Tween-20. The sensor chip surface was regenerated between binding cycles by injection of a 25 ┘L aliquot of 0.1 M acetic acid, 0.2 M NaCl, pH 3 to elute non-covalent bound protein. Sensorgrams were evaluated according to a 1:1 binding model by non-linear regression analysis using software supplied by the manufacturer. In separate experiments to measure competition between IL-17 variants for binding receptors, a fixed concentration of receptor was incubated with a varied concentration of IL-17 protein followed by injection of this mixture onto a flow cell having immobilized IL-17 protein. The amount of bound receptor was determined from the resonance signal obtained after completion of the association phase.

IL-17R [3] = target: T1, IL-17R; assay: SPR (BIAcore) binding measurements; conditions: IL-17R up to 1 ┘M
Experimental: as §2

B1: IL-17F: human IL-17F ligand, SEQ ID NO:4 (protein, listed as Homo sapiens)
chain: MTVKTLHGPAMVKYLLLSILGLAFLSEAAARKIPKVGHTFFQKPESCPPVPGGSMKLDIGIINENQRVSMSRNIESRSTSPWNYTVTWDPNRYPSEVVQAQCRNLGCINAQGKEDISMNSVPIQQETLVVRRKHQGCSVSFQLEKVLVTVGCTCVTPVIHHVQ
- competition for binding of IL-17R to immobilized IL-17 (IL-17R [1]): no competition
- competition for binding of IL-17RH1 to immobilized IL-17E (IL-17RH1): could not block binding
- binding to Cos cells transfected with IL-17R [2]: enhanced binding
- IL-8 production (TK-10 cells): production of IL-8
- binding of IL-17RH1 to immobilized IL-17F (IL-17RH1 (PRO5801)): no binding
- binding of IL-17R to immobilized IL-17F (IL-17R [3]): no binding
